Results from patent publication US20220298218A1 (ANTAG THERAPEUTICS, published 2022).
*1 amine or outer side, *2 acyl side, *3 side chain or, on linkers, in order; H or OH if unused. Where no end group is shown, it is not given here. Side-chain parts run from the residue outwards. [ ]: non-standard residue; d: D form. The star is where a group is joined. C18 diacid = O=C(O)CCCCCCCCCCCCCCCCC(=O)*; C16 diacid = O=C(O)CCCCCCCCCCCCCCC(=O)*; γGlu = O=C(O)[C@H](CCC(=O)[*:2])N[*:1]; Nle = CCCC[C@H](N)C(=O)O; AEEA = NCCOCCOCC(=O)O; Aib = CC(C)(N)C(=O)O

T1: human GIP receptor (human, UniProt P48546 22-466)
T1 sequence (looked up): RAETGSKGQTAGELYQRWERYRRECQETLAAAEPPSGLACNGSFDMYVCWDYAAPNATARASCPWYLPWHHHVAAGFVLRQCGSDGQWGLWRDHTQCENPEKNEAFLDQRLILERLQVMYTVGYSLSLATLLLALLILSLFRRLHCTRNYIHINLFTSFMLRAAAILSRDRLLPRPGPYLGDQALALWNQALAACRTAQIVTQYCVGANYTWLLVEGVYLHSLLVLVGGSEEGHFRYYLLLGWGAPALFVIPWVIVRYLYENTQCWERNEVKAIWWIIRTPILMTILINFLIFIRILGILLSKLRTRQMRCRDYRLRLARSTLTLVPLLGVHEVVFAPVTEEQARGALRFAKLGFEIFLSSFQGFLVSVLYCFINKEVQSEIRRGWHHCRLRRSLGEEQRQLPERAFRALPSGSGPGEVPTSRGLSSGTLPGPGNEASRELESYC

B1: AT697 (peptide)
peptide: [γGlu]GTFISDYSIA[Nle]DKIK(C16 diacid)QQDFVEWLLAQKPSSGAPPPS-OH
modifications: N-terminus assumed
SMILES: CCCC[C@H](NC(=O)[C@H](C)NC(=O)[C@@H](NC(=O)[C@H](CO)NC(=O)[C@H](Cc1ccc(O)cc1)NC(=O)[C@H](CC(=O)O)NC(=O)[C@H](CO)NC(=O)[C@@H](NC(=O)[C@H](Cc1ccccc1)NC(=O)[C@@H](NC(=O)CNC(=O)CC[C@H](N)C(=O)O)[C@@H](C)O)[C@@H](C)CC)[C@@H](C)CC)C(=O)N[C@@H](CC(=O)O)C(=O)N[C@@H](CCCCN)C(=O)N[C@H](C(=O)N[C@@H](CCCCNC(=O)CCCCCCCCCCCCCCC(=O)O)C(=O)N[C@@H](CCC(N)=O)C(=O)N[C@@H](CCC(N)=O)C(=O)N[C@@H](CC(=O)O)C(=O)N[C@@H](Cc1ccccc1)C(=O)N[C@H](C(=O)N[C@@H](CCC(=O)O)C(=O)N[C@@H](Cc1c[nH]c2ccccc12)C(=O)N[C@@H](CC(C)C)C(=O)N[C@@H](CC(C)C)C(=O)N[C@@H](C)C(=O)N[C@@H](CCC(N)=O)C(=O)N[C@@H](CCCCN)C(=O)N1CCC[C@H]1C(=O)N[C@@H](CO)C(=O)N[C@@H](CO)C(=O)NCC(=O)N[C@@H](C)C(=O)N1CCC[C@H]1C(=O)N1CCC[C@H]1C(=O)N1CCC[C@H]1C(=O)N[C@@H](CO)C(=O)O)C(C)C)[C@@H](C)CC
B2: AT695 (peptide)
peptide: EGTFISEYSI[Aib]LEKIK([AEEA-AEEA-γGlu-C18 diacid])QQEFVEWLLAQKPSSGAPPPS-OH
modifications: N-terminus assumed
SMILES: CC[C@H](C)[C@H](NC(=O)[C@H](CCCCN)NC(=O)[C@H](CCC(=O)O)NC(=O)[C@H](CC(C)C)NC(=O)C(C)(C)NC(=O)[C@@H](NC(=O)[C@H](CO)NC(=O)[C@H](Cc1ccc(O)cc1)NC(=O)[C@H](CCC(=O)O)NC(=O)[C@H](CO)NC(=O)[C@@H](NC(=O)[C@H](Cc1ccccc1)NC(=O)[C@@H](NC(=O)CNC(=O)[C@@H](N)CCC(=O)O)[C@@H](C)O)[C@@H](C)CC)[C@@H](C)CC)C(=O)N[C@@H](CCCCNC(=O)COCCOCCNC(=O)COCCOCCNC(=O)CC[C@H](NC(=O)CCCCCCCCCCCCCCCCC(=O)O)C(=O)O)C(=O)N[C@@H](CCC(N)=O)C(=O)N[C@@H](CCC(N)=O)C(=O)N[C@@H](CCC(=O)O)C(=O)N[C@@H](Cc1ccccc1)C(=O)N[C@H](C(=O)N[C@@H](CCC(=O)O)C(=O)N[C@@H](Cc1c[nH]c2ccccc12)C(=O)N[C@@H](CC(C)C)C(=O)N[C@@H](CC(C)C)C(=O)N[C@@H](C)C(=O)N[C@@H](CCC(N)=O)C(=O)N[C@@H](CCCCN)C(=O)N1CCC[C@H]1C(=O)N[C@@H](CO)C(=O)N[C@@H](CO)C(=O)NCC(=O)N[C@@H](C)C(=O)N1CCC[C@H]1C(=O)N1CCC[C@H]1C(=O)N1CCC[C@H]1C(=O)N[C@@H](CO)C(=O)O)C(C)C
B3: AT691 (peptide)
peptide: EGTFISDYSIALDKIK([AEEA-AEEA-γGlu-C18 diacid])QQDFVNWLLEGGPSSGAPPPS-OH
modifications: N-terminus assumed
SMILES: CC[C@H](C)[C@H](NC(=O)[C@H](CO)NC(=O)[C@H](Cc1ccc(O)cc1)NC(=O)[C@H](CC(=O)O)NC(=O)[C@H](CO)NC(=O)[C@@H](NC(=O)[C@H](Cc1ccccc1)NC(=O)[C@@H](NC(=O)CNC(=O)[C@@H](N)CCC(=O)O)[C@@H](C)O)[C@@H](C)CC)C(=O)N[C@@H](C)C(=O)N[C@@H](CC(C)C)C(=O)N[C@@H](CC(=O)O)C(=O)N[C@@H](CCCCN)C(=O)N[C@H](C(=O)N[C@@H](CCCCNC(=O)COCCOCCNC(=O)COCCOCCNC(=O)CC[C@H](NC(=O)CCCCCCCCCCCCCCCCC(=O)O)C(=O)O)C(=O)N[C@@H](CCC(N)=O)C(=O)N[C@@H](CCC(N)=O)C(=O)N[C@@H](CC(=O)O)C(=O)N[C@@H](Cc1ccccc1)C(=O)N[C@H](C(=O)N[C@@H](CC(N)=O)C(=O)N[C@@H](Cc1c[nH]c2ccccc12)C(=O)N[C@@H](CC(C)C)C(=O)N[C@@H](CC(C)C)C(=O)N[C@@H](CCC(=O)O)C(=O)NCC(=O)NCC(=O)N1CCC[C@H]1C(=O)N[C@@H](CO)C(=O)N[C@@H](CO)C(=O)NCC(=O)N[C@@H](C)C(=O)N1CCC[C@H]1C(=O)N1CCC[C@H]1C(=O)N1CCC[C@H]1C(=O)N[C@@H](CO)C(=O)O)C(C)C)[C@@H](C)CC
B4: AT694 (peptide)
peptide: EGTFISEYSIA[Nle]EKIK([AEEA-AEEA-γGlu-C18 diacid])QQEFVEWLLAQKPSSGAPPPS-OH
modifications: N-terminus assumed
SMILES: CCCC[C@H](NC(=O)[C@H](C)NC(=O)[C@@H](NC(=O)[C@H](CO)NC(=O)[C@H](Cc1ccc(O)cc1)NC(=O)[C@H](CCC(=O)O)NC(=O)[C@H](CO)NC(=O)[C@@H](NC(=O)[C@H](Cc1ccccc1)NC(=O)[C@@H](NC(=O)CNC(=O)[C@@H](N)CCC(=O)O)[C@@H](C)O)[C@@H](C)CC)[C@@H](C)CC)C(=O)N[C@@H](CCC(=O)O)C(=O)N[C@@H](CCCCN)C(=O)N[C@H](C(=O)N[C@@H](CCCCNC(=O)COCCOCCNC(=O)COCCOCCNC(=O)CC[C@H](NC(=O)CCCCCCCCCCCCCCCCC(=O)O)C(=O)O)C(=O)N[C@@H](CCC(N)=O)C(=O)N[C@@H](CCC(N)=O)C(=O)N[C@@H](CCC(=O)O)C(=O)N[C@@H](Cc1ccccc1)C(=O)N[C@H](C(=O)N[C@@H](CCC(=O)O)C(=O)N[C@@H](Cc1c[nH]c2ccccc12)C(=O)N[C@@H](CC(C)C)C(=O)N[C@@H](CC(C)C)C(=O)N[C@@H](C)C(=O)N[C@@H](CCC(N)=O)C(=O)N[C@@H](CCCCN)C(=O)N1CCC[C@H]1C(=O)N[C@@H](CO)C(=O)N[C@@H](CO)C(=O)NCC(=O)N[C@@H](C)C(=O)N1CCC[C@H]1C(=O)N1CCC[C@H]1C(=O)N1CCC[C@H]1C(=O)N[C@@H](CO)C(=O)O)C(C)C)[C@@H](C)CC
B5: AT693 (peptide)
peptide: EGTFISEYSIALEKIK([AEEA-AEEA-γGlu-C18 diacid])QQEFVEWLLAQKPSSGAPPPS-OH
modifications: N-terminus assumed
SMILES: CC[C@H](C)[C@H](NC(=O)[C@H](CO)NC(=O)[C@H](Cc1ccc(O)cc1)NC(=O)[C@H](CCC(=O)O)NC(=O)[C@H](CO)NC(=O)[C@@H](NC(=O)[C@H](Cc1ccccc1)NC(=O)[C@@H](NC(=O)CNC(=O)[C@@H](N)CCC(=O)O)[C@@H](C)O)[C@@H](C)CC)C(=O)N[C@@H](C)C(=O)N[C@@H](CC(C)C)C(=O)N[C@@H](CCC(=O)O)C(=O)N[C@@H](CCCCN)C(=O)N[C@H](C(=O)N[C@@H](CCCCNC(=O)COCCOCCNC(=O)COCCOCCNC(=O)CC[C@H](NC(=O)CCCCCCCCCCCCCCCCC(=O)O)C(=O)O)C(=O)N[C@@H](CCC(N)=O)C(=O)N[C@@H](CCC(N)=O)C(=O)N[C@@H](CCC(=O)O)C(=O)N[C@@H](Cc1ccccc1)C(=O)N[C@H](C(=O)N[C@@H](CCC(=O)O)C(=O)N[C@@H](Cc1c[nH]c2ccccc12)C(=O)N[C@@H](CC(C)C)C(=O)N[C@@H](CC(C)C)C(=O)N[C@@H](C)C(=O)N[C@@H](CCC(N)=O)C(=O)N[C@@H](CCCCN)C(=O)N1CCC[C@H]1C(=O)N[C@@H](CO)C(=O)N[C@@H](CO)C(=O)NCC(=O)N[C@@H](C)C(=O)N1CCC[C@H]1C(=O)N1CCC[C@H]1C(=O)N1CCC[C@H]1C(=O)N[C@@H](CO)C(=O)O)C(C)C)[C@@H](C)CC
B6: AT696 (peptide)
peptide: EGTFISEYSI[Aib][Nle]EKIK([AEEA-AEEA-γGlu-C18 diacid])QQEFVEWLLAQKPSSGAPPPS-OH
modifications: N-terminus assumed
SMILES: CCCC[C@H](NC(=O)C(C)(C)NC(=O)[C@@H](NC(=O)[C@H](CO)NC(=O)[C@H](Cc1ccc(O)cc1)NC(=O)[C@H](CCC(=O)O)NC(=O)[C@H](CO)NC(=O)[C@@H](NC(=O)[C@H](Cc1ccccc1)NC(=O)[C@@H](NC(=O)CNC(=O)[C@@H](N)CCC(=O)O)[C@@H](C)O)[C@@H](C)CC)[C@@H](C)CC)C(=O)N[C@@H](CCC(=O)O)C(=O)N[C@@H](CCCCN)C(=O)N[C@H](C(=O)N[C@@H](CCCCNC(=O)COCCOCCNC(=O)COCCOCCNC(=O)CC[C@H](NC(=O)CCCCCCCCCCCCCCCCC(=O)O)C(=O)O)C(=O)N[C@@H](CCC(N)=O)C(=O)N[C@@H](CCC(N)=O)C(=O)N[C@@H](CCC(=O)O)C(=O)N[C@@H](Cc1ccccc1)C(=O)N[C@H](C(=O)N[C@@H](CCC(=O)O)C(=O)N[C@@H](Cc1c[nH]c2ccccc12)C(=O)N[C@@H](CC(C)C)C(=O)N[C@@H](CC(C)C)C(=O)N[C@@H](C)C(=O)N[C@@H](CCC(N)=O)C(=O)N[C@@H](CCCCN)C(=O)N1CCC[C@H]1C(=O)N[C@@H](CO)C(=O)N[C@@H](CO)C(=O)NCC(=O)N[C@@H](C)C(=O)N1CCC[C@H]1C(=O)N1CCC[C@H]1C(=O)N1CCC[C@H]1C(=O)N[C@@H](CO)C(=O)O)C(C)C)[C@@H](C)CC

molecular target: T1, human GIP receptor; assay: cell-based or functional assay

Row | Binder | cAMP agonism % Emax | cAMP antagonism | cAMP antagonism % inhib | cAMP antagonism pIC50
1 | B1 | 8% | 2.82 nM | 81% | 8.6
2 | B2 | 0% | 0.794 nM | 98% | 9.1
3 | B3 | 7% | 20 nM | 75% | 7.8
4 | B4 | 4% | 1.47 nM | 88% | 8.8
5 | B5 | 0% | 1.26 nM | 96% | 8.9
6 | B6 | 0% | 0.584 nM | 97% | 9.2
